For assay [1], the target named is T1, human CD3 receptor on human cells (human, UniProt P07766 23-207; P09693 23-182; P04234 22-171).
T1 construct: whole, on cells; also called human CD3 on cell surface; CD3 on Jurkat cells, clone E6-1
The assay is described as follows: flow cytometry on Jurkat cells (FIG. 5).
Source text: FIG. 5 presents the cytoflow analysis of Jurkat cells stained with various anti-CD3 antibodies at various pHs.

The target of assay [2] is T1, human CD3 receptor on human cells. As to the kind of experiment: flow cytometry on human cells (Example 5).

Numbering of substitutions follows the chain as printed.

Here are results for two molecules from US20220135680A1 (ABZYME THERAPEUTICS, published 2022).

B1: Abz497 ScFV (scFv)
scFv: QIQLVQSGAEVAKPGASVKVSCKASGYTFTRYTMHWVRQRPGQGLEWIGYINPSRGYTNYNQKFKDRATLTTDKSTSTAYMELSSLTSEDTAVYYCARYYDDHYCLDYWGQGTTVTVSSVEGGSGGSGGSGGSGGVDDIQLTQSPSSLSASVGDRVTITCRASSSVHYMNWYQQKSGTAPKRWIYDTSKVASGVPYRFSGSGSGTSYTLTISSLQPEDAATYYCQQWSSNPLTFGGGTKVEIKR
notes: also called pH-dependent ScFV antibody variant; not shown: FLAG tag at the C terminus
On to B1, for which the binding result in assay [1] is “binds”.

B2: Abz494 ScFV (scFv)
scFv: B1 scFv with S144P
notes: as for B1
On to B2, for which the binding result in assay [2] is recorded as “binds”.
